Data as given in PMC9482650, “Quantitative fragmentomics allow affinity mapping of interactomes” (Nature Communications, 2022).

T1: APBA3_1, O96018
T1 sequence (O96018 389-490, limits assumed, looked up): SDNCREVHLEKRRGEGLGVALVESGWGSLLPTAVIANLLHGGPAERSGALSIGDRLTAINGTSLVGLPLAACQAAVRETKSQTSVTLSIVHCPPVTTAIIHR

T2: GRIP1_5, Q9Y3R0
T2 sequence (Q9Y3R0 568-668, limits assumed, looked up): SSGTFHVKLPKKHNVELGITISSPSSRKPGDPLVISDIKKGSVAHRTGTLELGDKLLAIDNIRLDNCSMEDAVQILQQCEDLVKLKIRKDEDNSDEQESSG

T3: PDZRN3_1, Q9UPQ7
T3 sequence (Q9UPQ7 244-349, limits assumed, looked up): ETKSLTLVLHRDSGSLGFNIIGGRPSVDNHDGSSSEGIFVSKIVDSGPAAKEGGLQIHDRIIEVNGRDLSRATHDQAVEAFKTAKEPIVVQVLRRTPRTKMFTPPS

T4: TX1BP3, O14907
T4 sequence (O14907 10-122, limits assumed, looked up): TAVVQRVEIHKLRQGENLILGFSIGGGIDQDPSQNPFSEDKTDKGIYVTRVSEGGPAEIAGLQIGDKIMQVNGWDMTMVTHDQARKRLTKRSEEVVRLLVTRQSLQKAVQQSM

T5: RADIL, Q96JH8
T5 sequence (Q96JH8 971-1071, limits assumed, looked up): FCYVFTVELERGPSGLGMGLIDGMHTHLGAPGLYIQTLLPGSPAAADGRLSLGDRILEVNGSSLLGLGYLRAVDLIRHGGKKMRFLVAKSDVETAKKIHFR

T6: GRIP1_3, Q9Y3R0
T6 sequence (Q9Y3R0 247-346, limits assumed, looked up): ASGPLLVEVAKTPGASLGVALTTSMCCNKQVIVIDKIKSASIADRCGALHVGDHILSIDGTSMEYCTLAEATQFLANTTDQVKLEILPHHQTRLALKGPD

T7: DFNB31_1, Q9P202
T7 sequence (Q9P202 135-233, limits assumed, looked up): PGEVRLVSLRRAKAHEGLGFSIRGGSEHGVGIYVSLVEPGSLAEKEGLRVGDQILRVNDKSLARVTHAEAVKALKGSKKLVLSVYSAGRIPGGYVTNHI

T8: SNTB1, Q13884
T8 sequence (Q13884 107-205, limits assumed, looked up): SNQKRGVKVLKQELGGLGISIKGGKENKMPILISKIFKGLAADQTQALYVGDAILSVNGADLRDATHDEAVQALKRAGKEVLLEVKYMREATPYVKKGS


Target: LNX1_3, Q8TBB1
Experiment: holdup assay
Set-up: key: below the threshold = too weak to quantify, mostly under pKd 3.1 to 4
Details: plain residues with an end cap or a label only (N-terminal biotin on a linker: ado-ado)

LNX1_3, Q8TBB1, sequence (Q8TBB1 500-596): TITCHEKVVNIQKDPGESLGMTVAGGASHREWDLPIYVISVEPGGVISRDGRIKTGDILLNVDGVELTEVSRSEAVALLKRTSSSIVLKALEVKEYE

Q: Which pKd does the source give for SGDGKTSVWI [GJC1, P36383] here?
A: below the threshold

Target: LNX1_1, Q8TBB1
Experiment: holdup assay
Set-up: key: below the threshold = too weak to quantify, mostly under pKd 3.1 to 4
Details: plain residues with an end cap or a label only (N-terminal biotin on a linker: ado-ado)

LNX1_1, Q8TBB1, sequence (Q8TBB1 261-371): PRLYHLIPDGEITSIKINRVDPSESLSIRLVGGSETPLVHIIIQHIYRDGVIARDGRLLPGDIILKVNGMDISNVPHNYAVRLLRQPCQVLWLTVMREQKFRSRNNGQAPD

Q: For SGDGKTSVWI [GJC1, P36383], which pKd is on record?
A: below the threshold

Target: DLG4_3, P78352
Experiment: holdup assay
Set-up: key: below the threshold = too weak to quantify, mostly under pKd 3.1 to 4
Details: plain residues with an end cap or a label only (N-terminal biotin on a linker: ado-ado)

DLG4_3, P78352, sequence (P78352 306-403): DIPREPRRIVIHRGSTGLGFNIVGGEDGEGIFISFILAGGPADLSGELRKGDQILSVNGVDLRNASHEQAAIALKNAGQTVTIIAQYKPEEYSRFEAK

Q: For SGDGKTSVWI [GJC1, P36383], which pKd is on record?
A: below the threshold

Target: IL16_4, Q14005
Experiment: holdup assay
Set-up: key: below the threshold = too weak to quantify, mostly under pKd 3.1 to 4
Details: plain residues with an end cap or a label only (N-terminal biotin on a linker: ado-ado)

IL16_4, Q14005, sequence (Q14005 1229-1329): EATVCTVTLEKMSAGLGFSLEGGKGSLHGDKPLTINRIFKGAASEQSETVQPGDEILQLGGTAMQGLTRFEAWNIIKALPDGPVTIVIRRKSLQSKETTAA

Q: With SGDGKTSVWI [GJC1, P36383] as the binder, how does the pKd read?
A: below the threshold

Target: MAGI2_6, Q86UL8
Experiment: holdup assay
Set-up: key: below the threshold = too weak to quantify, mostly under pKd 3.1 to 4
Details: plain residues with an end cap or a label only (N-terminal biotin on a linker: ado-ado)

MAGI2_6, Q86UL8, sequence (Q86UL8 1141-1229): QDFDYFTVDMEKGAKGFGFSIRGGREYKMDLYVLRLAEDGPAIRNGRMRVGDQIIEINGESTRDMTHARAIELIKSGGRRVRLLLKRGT

Q: For SGDGKTSVWI [GJC1, P36383], which pKd is on record?
A: 3.73

Target: T1, APBA3_1, O96018
Experiment: holdup assay
Set-up: key: below the threshold = too weak to quantify, mostly under pKd 3.1 to 4
Details: plain residues with an end cap or a label only (N-terminal biotin on a linker: ado-ado)

Q: For SGDGKTSVWI [GJC1, P36383], which pKd is on record?
A: below the threshold

Target: SCRIB_3, Q14160
Experiment: holdup assay
Set-up: key: below the threshold = too weak to quantify, mostly under pKd 3.1 to 4
Details: plain residues with an end cap or a label only (N-terminal biotin on a linker: ado-ado)

SCRIB_3, Q14160, sequence (Q14160 999-1103): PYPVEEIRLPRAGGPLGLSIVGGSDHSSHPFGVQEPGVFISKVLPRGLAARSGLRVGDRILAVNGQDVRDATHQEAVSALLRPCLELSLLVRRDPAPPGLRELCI

Q: SGDGKTSVWI [GJC1, P36383] was tested. Which pKd did it give?
A: 4.21

Target: LNX1_2, Q8TBB1
Experiment: holdup assay
Set-up: key: below the threshold = too weak to quantify, mostly under pKd 3.1 to 4
Details: plain residues with an end cap or a label only (N-terminal biotin on a linker: ado-ado)

LNX1_2, Q8TBB1, sequence (Q8TBB1 371-470): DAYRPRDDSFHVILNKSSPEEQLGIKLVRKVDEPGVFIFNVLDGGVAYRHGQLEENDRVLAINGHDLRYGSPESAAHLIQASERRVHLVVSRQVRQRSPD

Q: How did the pKd turn out when SGDGKTSVWI [GJC1, P36383] was run?
A: 4.03

Target: T2, GRIP1_5, Q9Y3R0
Experiment: holdup assay
Set-up: key: below the threshold = too weak to quantify, mostly under pKd 3.1 to 4
Details: plain residues with an end cap or a label only (N-terminal biotin on a linker: ado-ado)

Q: How did the pKd turn out when SGDGKTSVWI [GJC1, P36383] was run?
A: below the threshold

Target: GRIP2_4, Q9C0E4
Experiment: holdup assay
Set-up: key: below the threshold = too weak to quantify, mostly under pKd 3.1 to 4
Details: plain residues with an end cap or a label only (N-terminal biotin on a linker: ado-ado)

GRIP2_4, Q9C0E4, sequence (Q9C0E4 446-548): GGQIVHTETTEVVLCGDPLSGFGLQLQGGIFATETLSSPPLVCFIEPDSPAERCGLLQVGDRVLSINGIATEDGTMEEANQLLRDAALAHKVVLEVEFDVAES

Q: With SGDGKTSVWI [GJC1, P36383] as the binder, how does the pKd read?
A: below the threshold

Target: MAGI1_1, Q96QZ7
Experiment: holdup assay
Set-up: key: below the threshold = too weak to quantify, mostly under pKd 3.1 to 4
Details: plain residues with an end cap or a label only (N-terminal biotin on a linker: ado-ado)

MAGI1_1, Q96QZ7, sequence (Q96QZ7 1-106): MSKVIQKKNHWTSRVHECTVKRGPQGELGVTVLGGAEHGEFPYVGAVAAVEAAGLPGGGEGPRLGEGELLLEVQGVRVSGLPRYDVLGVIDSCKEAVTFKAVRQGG

Q: How did the pKd turn out when SGDGKTSVWI [GJC1, P36383] was run?
A: below the threshold

Target: GIPC2, Q8TF65
Experiment: holdup assay
Set-up: key: below the threshold = too weak to quantify, mostly under pKd 3.1 to 4
Details: plain residues with an end cap or a label only (N-terminal biotin on a linker: ado-ado)

GIPC2, Q8TF65, sequence (Q8TF65 112-203): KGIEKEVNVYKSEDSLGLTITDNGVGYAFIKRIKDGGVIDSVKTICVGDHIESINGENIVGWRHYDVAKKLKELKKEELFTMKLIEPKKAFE

Q: For SGDGKTSVWI [GJC1, P36383], which pKd is on record?
A: below the threshold

Target: T3, PDZRN3_1, Q9UPQ7
Experiment: holdup assay
Set-up: key: below the threshold = too weak to quantify, mostly under pKd 3.1 to 4
Details: plain residues with an end cap or a label only (N-terminal biotin on a linker: ado-ado)

Q: Which pKd does the source give for SGDGKTSVWI [GJC1, P36383] here?
A: below the threshold

Target: PICK1, Q9NRD5
Experiment: holdup assay
Set-up: key: below the threshold = too weak to quantify, mostly under pKd 3.1 to 4
Details: plain residues with an end cap or a label only (N-terminal biotin on a linker: ado-ado)

PICK1, Q9NRD5, sequence (Q9NRD5 17-115): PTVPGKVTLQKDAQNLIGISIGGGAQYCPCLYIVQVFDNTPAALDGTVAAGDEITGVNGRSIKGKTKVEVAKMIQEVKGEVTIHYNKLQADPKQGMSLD

Q: Which pKd does the source give for SGDGKTSVWI [GJC1, P36383] here?
A: below the threshold

Target: MAGI2_5, Q86UL8
Experiment: holdup assay
Set-up: key: below the threshold = too weak to quantify, mostly under pKd 3.1 to 4
Details: plain residues with an end cap or a label only (N-terminal biotin on a linker: ado-ado)

MAGI2_5, Q86UL8, sequence (Q86UL8 915-1017): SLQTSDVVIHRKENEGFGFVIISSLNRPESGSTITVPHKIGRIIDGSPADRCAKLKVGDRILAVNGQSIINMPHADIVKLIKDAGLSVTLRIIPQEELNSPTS

Q: With SGDGKTSVWI [GJC1, P36383] as the binder, how does the pKd read?
A: below the threshold

Target: GRIP2_7, Q9C0E4
Experiment: holdup assay
Set-up: key: below the threshold = too weak to quantify, mostly under pKd 3.1 to 4
Details: plain residues with an end cap or a label only (N-terminal biotin on a linker: ado-ado)

GRIP2_7, Q9C0E4, sequence (Q9C0E4 934-1023): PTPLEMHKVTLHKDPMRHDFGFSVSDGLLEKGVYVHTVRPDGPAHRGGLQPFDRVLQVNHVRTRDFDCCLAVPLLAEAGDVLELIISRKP

Q: How did the pKd turn out when SGDGKTSVWI [GJC1, P36383] was run?
A: 4.37

Target: T4, TX1BP3, O14907
Experiment: holdup assay
Set-up: key: below the threshold = too weak to quantify, mostly under pKd 3.1 to 4
Details: plain residues with an end cap or a label only (N-terminal biotin on a linker: ado-ado)

Q: SGDGKTSVWI [GJC1, P36383] was tested. Which pKd did it give?
A: below the threshold

Target: SNX27, Q96L92
Experiment: holdup assay
Set-up: key: below the threshold = too weak to quantify, mostly under pKd 3.1 to 4
Details: plain residues with an end cap or a label only (N-terminal biotin on a linker: ado-ado)

Q: How did the pKd turn out when SGDGKTSVWI [GJC1, P36383] was run?
A: 3.56

Target: T5, RADIL, Q96JH8
Experiment: holdup assay
Set-up: key: below the threshold = too weak to quantify, mostly under pKd 3.1 to 4
Details: plain residues with an end cap or a label only (N-terminal biotin on a linker: ado-ado)

Q: With SGDGKTSVWI [GJC1, P36383] as the binder, how does the pKd read?
A: 4.13

Target: Inadl_6, Q8NI35
Experiment: holdup assay
Set-up: key: below the threshold = too weak to quantify, mostly under pKd 3.1 to 4
Details: plain residues with an end cap or a label only (N-terminal biotin on a linker: ado-ado)

Inadl_6, Q8NI35, sequence (Q8NI35 1058-1167): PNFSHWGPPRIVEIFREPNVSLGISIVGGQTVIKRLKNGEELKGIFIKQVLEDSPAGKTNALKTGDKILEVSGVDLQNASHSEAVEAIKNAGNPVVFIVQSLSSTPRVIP

Q: SGDGKTSVWI [GJC1, P36383] was tested. Which pKd did it give?
A: 3.69

Target: PDZRN4_1, Q6ZMN7
Experiment: holdup assay
Set-up: key: below the threshold = too weak to quantify, mostly under pKd 3.1 to 4
Details: plain residues with an end cap or a label only (N-terminal biotin on a linker: ado-ado)

PDZRN4_1, Q6ZMN7, sequence (Q6ZMN7 213-318): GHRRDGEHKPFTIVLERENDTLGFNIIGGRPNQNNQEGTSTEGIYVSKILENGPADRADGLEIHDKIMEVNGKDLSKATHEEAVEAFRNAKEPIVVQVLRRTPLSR

Q: For SGDGKTSVWI [GJC1, P36383], which pKd is on record?
A: below the threshold

Target: T6, GRIP1_3, Q9Y3R0
Experiment: holdup assay
Set-up: key: below the threshold = too weak to quantify, mostly under pKd 3.1 to 4
Details: plain residues with an end cap or a label only (N-terminal biotin on a linker: ado-ado)

Q: How did the pKd turn out when SGDGKTSVWI [GJC1, P36383] was run?
A: below the threshold

Target: Inadl_1, Q8NI35
Experiment: holdup assay
Set-up: key: below the threshold = too weak to quantify, mostly under pKd 3.1 to 4
Details: plain residues with an end cap or a label only (N-terminal biotin on a linker: ado-ado)

Inadl_1, Q8NI35, sequence (Q8NI35 113-229): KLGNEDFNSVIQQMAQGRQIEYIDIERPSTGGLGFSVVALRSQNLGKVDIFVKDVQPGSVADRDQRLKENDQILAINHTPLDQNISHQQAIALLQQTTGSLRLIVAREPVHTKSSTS

Q: With SGDGKTSVWI [GJC1, P36383] as the binder, how does the pKd read?
A: 4.03

Target: T7, DFNB31_1, Q9P202
Experiment: holdup assay
Set-up: key: below the threshold = too weak to quantify, mostly under pKd 3.1 to 4
Details: plain residues with an end cap or a label only (N-terminal biotin on a linker: ado-ado)

Q: With SGDGKTSVWI [GJC1, P36383] as the binder, how does the pKd read?
A: 3.48

Target: T8, SNTB1, Q13884
Experiment: holdup assay
Set-up: key: below the threshold = too weak to quantify, mostly under pKd 3.1 to 4
Details: plain residues with an end cap or a label only (N-terminal biotin on a linker: ado-ado)

Q: Which pKd does the source give for SGDGKTSVWI [GJC1, P36383] here?
A: below the threshold

Target: FRMPD4, Q14CM0
Experiment: holdup assay
Set-up: key: below the threshold = too weak to quantify, mostly under pKd 3.1 to 4
Details: plain residues with an end cap or a label only (N-terminal biotin on a linker: ado-ado)

FRMPD4, Q14CM0, sequence (Q14CM0 67-160): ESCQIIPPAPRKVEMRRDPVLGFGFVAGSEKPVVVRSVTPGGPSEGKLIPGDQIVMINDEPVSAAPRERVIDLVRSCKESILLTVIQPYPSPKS

Q: For SGDGKTSVWI [GJC1, P36383], which pKd is on record?
A: below the threshold

Target: DLG5_1, Q8TDM6
Experiment: holdup assay
Set-up: key: below the threshold = too weak to quantify, mostly under pKd 3.1 to 4
Details: plain residues with an end cap or a label only (N-terminal biotin on a linker: ado-ado)

DLG5_1, Q8TDM6, sequence (Q8TDM6 617-713): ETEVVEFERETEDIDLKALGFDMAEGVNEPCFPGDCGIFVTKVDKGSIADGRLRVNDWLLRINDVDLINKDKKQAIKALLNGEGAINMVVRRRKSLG

Q: For SGDGKTSVWI [GJC1, P36383], which pKd is on record?
A: below the threshold

Target: MAGI1_2, Q96QZ7
Experiment: holdup assay
Set-up: key: below the threshold = too weak to quantify, mostly under pKd 3.1 to 4
Details: plain residues with an end cap or a label only (N-terminal biotin on a linker: ado-ado)

MAGI1_2, Q96QZ7, sequence (Q96QZ7 456-580): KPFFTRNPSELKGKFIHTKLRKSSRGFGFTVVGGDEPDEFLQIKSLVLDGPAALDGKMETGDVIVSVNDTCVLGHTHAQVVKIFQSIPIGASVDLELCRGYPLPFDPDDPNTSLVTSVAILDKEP

Q: How did the pKd turn out when SGDGKTSVWI [GJC1, P36383] was run?
A: below the threshold

Target: GORASP1, Q9BQQ3
Experiment: holdup assay
Set-up: key: below the threshold = too weak to quantify, mostly under pKd 3.1 to 4
Details: plain residues with an end cap or a label only (N-terminal biotin on a linker: ado-ado)

GORASP1, Q9BQQ3, sequence (Q9BQQ3 1-208): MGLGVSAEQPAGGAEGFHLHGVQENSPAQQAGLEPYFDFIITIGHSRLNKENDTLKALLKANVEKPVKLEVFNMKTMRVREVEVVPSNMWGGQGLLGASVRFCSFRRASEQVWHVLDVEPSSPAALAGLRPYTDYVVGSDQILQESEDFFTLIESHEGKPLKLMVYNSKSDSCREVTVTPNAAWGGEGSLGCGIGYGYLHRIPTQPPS

Q: Which pKd does the source give for SGDGKTSVWI [GJC1, P36383] here?
A: 4.51
